Reference: the supplement of paper PMC9170038

What follows are sequences tested on K4 kissing-loop RNA reporter (assay: apparent KD of K4 kissing-loop reporter; higher = weaker reporter binding). Settings: Eterna round: R107; input ligand: none.
Protocol: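 RNA-MaP round R107: designed RNA switches with theophylline, tryptophan, arginine or FMN aptamers are transcribed on-chip within common flanks. They are titrated with a labelled K4 kissing-loop RNA reporter in RNA-MaP buffer (100 mM Tris pH 7.5, 80 mM KCl, 4 mM MgCl2), without ligand or with the indicated ligand. Median apparent KD per design.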
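Also: bound reporter read as fluorescence of individual clusters on recovered sequencing chips by microscopy, with normalized cluster intensities fitted with a binding model.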

Row | Sequence | apparent KD of K4 kissing-loop reporter [nM]
1 | AGACUACCACACUGUCAAUAGACAGUGAGGUAGGAUAUGCUGAAAAGCAGAAGGACCAGUGAUGUUGGUAGGUAGUCAAAAUAAA [FmnAX 11 #SwitchBubble #StaticStem #K4Early] | 84.8
2 | GCAGUGAUGUUGCGCGGGUACGGUAGAGUGCGAGGACCGGUACGGCCGCCACUCGUACGGAACUGGCUAAUAUAUGGAUAGGUGA [V] | 446
3 | UGUGUUGUUUUGAUGUUUGGUGUUUGUUGGCAGGAUAUCGUAGAGGCGAGAAGGGCUUGGGAGCGGUAUGAGUGAUGUUUGUAGG [deedwrmullin] | 364
4 | UUGCGUCUCUGAGGAUAUCAGAACAGAGUGAUGUUCUGUCAACGCCCAGUGAUGUUGGAUGCGAUCUGAGAAGGCAGUGGGCGCG [Same State FMN B GF 10] | 219
5 | GUAUCGCUAGGAGGAUAUUCCAUUUUACAUAGAAAUGGCUAUGCGAAGUGAUGUUUCGAUUUACGGGAAGAAGGCCUAGUGAUAC [FMN B 22] | 148
6 | UGUACCGAGUGAGGAUAUGUCGUCGAAAGACGAAAUGGAGUGAUGUUCCUUAAACUGCGAAAGCAGACAGAAGGUACUUGGUACU [FmnBS 29 G11+U75] | 302
7 | GCAGUGAUGUUGCAAAAUGUCUGUGGUAGUCGAGGACCGGUACGGCCGCCACUCGGUGAGAACCUGCUAAUACAUCGAUAAGUGA [IX] | 627
8 | UACAAACGUAGUGAUGUUACGUACUCUGAUACCAGACAACUCUAAGUCCCUUGGCAGCAGUCACUUAGCUUAUUAUUUUCUCAAA [JR_Nu_ExcTheophyA_Sub026] | 116
9 | AUAUCUGAUAGCAGUGAUGUUGCUUCAGAUACCAGACGAGAUCAUGUCCCUUGGCAGCUGACACGGCACGUGCUAGGUUAGAUGA [Theo A Ex t2] | 101
10 | GAUGAUCGCGCGGCCGCCACUGGUCAGUGAUGUUGACAUUAAUGCGCCGAGUAGUAACGGCGCAACAGGACCGGGCGCGAUGUAG [#11 K4 Tryptophan B Same State] | 143
11 | AGAAAAGGGACGAUCGUCGAGUUGCCAGAAGGAGCGGUAAUUUUACCAGGUAGGUCGCUGGCCCAGUGAUGUUGGGCUUUUAAGA [Biisinaor] | 125
12 | AAAGUUGAAAGUGAUACCAGACGAGUGAAGGGAAGUAAUUAAUUUGGAGUGAUGUUCCGCGUCCCUUGGCAGCAUUUUGUAAUUU [Exclusion Theophylline B GF 24] | 189
13 | GUUACGCAUGGAAGGAGCGCGAAUUUAAUUAGUGAGUGAUGUUCACAUAAAAUAUAUAAUACGCAGGUAGGUCGCCAUGUGUAAC [Ex Arginine B K4 1] | 79.3
14 | GACAACAGGGUGAGACUCACGGCGCCAGAAGGAGCGGUGAUUCCACCAGGUAGGUCGCUGGCCCAGUGAUGUUGGGCUUUGUGUC [Onoran] | 138
15 | CACCAUGAAUUCUCUAGGAGUGAUGUUUUUCGAGGACCGGUACGGCCGCCACUCGGACGAGGACCGUGGGAGCGGCGAAAAGACU [ghgmullin] | 329
16 | UUUAACGAGUGAUGUUCGUAAAGUAAUAGUUAGGAUAUCGUUUUUUCGAGAAGGAACUUCGAAGUGAUACGAAAGUAUCGCUUCG [FMN A 8] | 192
17 | UGACUGGACUGAAGGAGCGGGCGAGACAAAGUCUCGAACUCGUAGUGAUGUUAUGAAAUAACCCAGGUAGGUCGCAGUCUAGUCU | 892
18 | AAAAUAAACCAGUGAUGUUGGUAUCCAGAUACCAGCGACGAAAGUCGCCCUUGGCAGCUGUGGACGUACAAAAUAAGUACGUCCU | 894
19 | UAACGCUGACAGCAACAAUUCGGGCCUGAUACCAGCAAUUUUUCAUGCCCUUGGCAGCAGAGUGAUGUUUUCUGUCUAUUUAGUC [theeternabot_exclusion_KL_Theo_A_23] | 864
20 | CGCCGCAAGGCGGGCCGGCCCACUCCGGAAGGAGCGCCCGCAAGGGCAGGUAGGUCGCCGGAGUGAUGUUCCGGUGGCCGGCCCG [#2 Exclusion - Arginine A Attempt #3 (Inspired by Omei)] | 376
21 | AGCAGUGAUGUUGCAUUUAAAAUGACCGAUACCAGUAUCGAUAGAUACCCUUGGCAGCGGAUUUCCGCAACGACUAGGAAACUAG [Ex Theophylline A K4 15] | 436
22 | CACGUUUACCAAGGAUAUGGUCUGCCGCGGAACCGUUCAAGUGAUGUUUGAUUCGAGUAUUAAUCUCCAGAAGGUGGUAGUACAG [theeternabot_exclusion_KL_FMN_B_6] | 417

Same assay, conditions: Eterna round: R107; input ligand: theophylline 20 uM

Row | Sequence | apparent KD of K4 kissing-loop reporter [nM]
23 | AAGUUAUGAUCUGAUACCAGACUUUAUCUUGUUUAUAAGUCAAGUGAUGUUUGACUAUUAGUCCCUUGGCAGCAGUAUUGUUUAA [#18 K4 Theophylline B Same State] | 228
24 | AAGAAGAAUGGAAGGAGCGAGCAGAAAUAACCAGUGAUGUUGGAAAGCCUUAUUGCUUAAGCUCAGGUAGGUCGCCAAGAAAAGA [Mostly trial and error] | 226
25 | GGAUAGGACAGAGGAUAUGGAGAGUCUACAAAGUAGGCUCAUAAUCCUUGAAUGGAAGUGAUGUUUCCAGAAGGCUGUCCUAUCG [FmnBX 17 - #SwitchBubble #StaticStem #Palindromic] | 101
26 | UGCGCUAUGUCCUAAAACGUCCUCCGGGAUACCAGAGUCUUUUUAUUCCCUUGGCAGCUUGAGUGAUGUUUGAUGCCGUUCUUGU [srrevmullin] | 287
27 | CGAGUCCUGAGGAGUGAUGUUCCUCGGCCACGAGGACCGGUACGGCCGCCACUCGUUACUCGGGCUUAGUGGCUAGCACUAAGCU [Tirete] | 238
